Measurements from patent US20210380656A1 (ACADEMISCH ZIEKENHUIS LEIDEN H O D N LUMC, published 2021).

T1: HA-1^H, minor histocompatibility antigen encoded by HMHA1 (Rho GTPase-activating protein 45), R139H … (human)
T1 peptide: VLHDDLLEA

B1: Chimeric HA-1 TCR: M7 TCR alpha chain (TRAV25*01) with M2 TCR beta chain (TRBV7-9) (TCR, V domains shown)
Valpha: GQQVMQIPQYQHVQEGEDFTTYCNSSTTLSNIQWYKQRPGGHPVFLIQLVKSGEVKKQKRLTFQFGEAKKNSSLHITATQTTDVGTYFCAGNTGGFKTIFGAGTRLFVKA
Vbeta: DTGVSQNPRHKITKRGQNVTFRCDPISEHNRLYWYRQTLGQGPEFLTYFQNEAQLEKSRLLSDRFSAERPKGSFSTLEIQRTEQGDSAMYLCASLTVQNTEAFFGQGTRLTVV
B2: HA-1^H TCR M7 (TCR, V domains shown)
Valpha: B1 Valpha
Vbeta: DTGVSQDPRHKITKRGQNVTFRCDPISEHNRLYWYRQTLGQGPEFLTYFQNEAQLEKSRLLSDRFSAERPKGSFSTLEIQRTEQGDSAMYLCASSLLGNQPQHFGDGTRLSIL
B3: HA-1^H TCR M2 (TCR, V domains shown)
Valpha: GENVEQHPSTLSVQEGDSAVIKCTYSDSASNYFPWYKQELGKRPQLIIDIRSNVGEKKDQRIAVTLNKTAKHFSLHITETQPEDSAVYFCAARNSGAGSYQLTFGKGTKLSVIP
Vbeta: B1 Vbeta
B4: HA-1-TCR of clone M7 (M7 TRBV7-9 with M7 TRAV25*01), unmodified (TCR, V domains shown)
V domain 1: B1 Valpha
V domain 2: GVSQDPRHKITKRGQNVTFRCDPISEHNRLYWYRQTLGQGPEFLTYFQNEAQLEKSRLLSDRFSAERPKGSFSTLEIQRTEQGDSAMYLCASSLLGNQPQHFGDGTRLSILE
notes: Expressed on transduced T cells; also called HA-1^H TCR M7; HA-1-TCR WT
B5: HA-1-TCR of clone M2 (M2 TRBV7-9 with M2 TRAV13-1*02) (TCR, V domains shown)
V domain 1: B3 Valpha
V domain 2: DTGVSQNPRHKITKRGQNVTFRCDPISEHNRLYWYRQTLGQGPEFLTYFQNEAQLEKSRLLSDRFSAERPKGSFSTLEIQRTEQGDSAMYLCASLTVQNTEAFFGQGTRLTVVE
notes: Expressed on transduced peripheral T cells; also called HA-1^H TCR M2
B6: Chimeric TCR: M2 TRBV7-9 beta chain with M7 TRAV25*01 alpha chain (TCR, V domains shown)
V domain 1: B1 Valpha
V domain 2: B5 V domain 2
notes: The entries include the leader

Biological target: T1, HA-1^H, minor histocompatibility …
Experiment: multimer staining

binding result	Binder
recognises	B1
recognises	B2
recognises	B3

biological target: T2, HA-1 pMHC tetramer (human); experiment: HA-1 pMHC tetramer staining of peripheral T cells transduced with the TCR chains, flow cytometry
T2 construct: also called HA-1 tetramer; HA-1-tetramer

MFI of HA-1 pMHC tetramer [MFI]	Binder
33.8	B4
24.2	B5
32.6	B6
